Laboratory results published in patent publication US20200385434A1 (VOLUTION IMMUNO PHARMACEUTICALS, published 2020).

Target: T1, human complement component C5 (human, UniProt P01031 19-673; P01031 678-1676)
T1 construct: Purified human C5 was amine-coupled to a CM3 sensor chip for SPR; In the CH50 assay the C5 is the one present in pooled normal human serum; Native C5 is a disulphide-linked two-chain protein made from one precursor; also called human C5
Test: SPR (BIAcore 2000, 25 C), human C5 amine-coupled to a CM3 chip, Coversin injected at 0-96 nM, global Langmuir fit

T1 sequence (P01031 19-673 limits assumed, chain 1 of 2): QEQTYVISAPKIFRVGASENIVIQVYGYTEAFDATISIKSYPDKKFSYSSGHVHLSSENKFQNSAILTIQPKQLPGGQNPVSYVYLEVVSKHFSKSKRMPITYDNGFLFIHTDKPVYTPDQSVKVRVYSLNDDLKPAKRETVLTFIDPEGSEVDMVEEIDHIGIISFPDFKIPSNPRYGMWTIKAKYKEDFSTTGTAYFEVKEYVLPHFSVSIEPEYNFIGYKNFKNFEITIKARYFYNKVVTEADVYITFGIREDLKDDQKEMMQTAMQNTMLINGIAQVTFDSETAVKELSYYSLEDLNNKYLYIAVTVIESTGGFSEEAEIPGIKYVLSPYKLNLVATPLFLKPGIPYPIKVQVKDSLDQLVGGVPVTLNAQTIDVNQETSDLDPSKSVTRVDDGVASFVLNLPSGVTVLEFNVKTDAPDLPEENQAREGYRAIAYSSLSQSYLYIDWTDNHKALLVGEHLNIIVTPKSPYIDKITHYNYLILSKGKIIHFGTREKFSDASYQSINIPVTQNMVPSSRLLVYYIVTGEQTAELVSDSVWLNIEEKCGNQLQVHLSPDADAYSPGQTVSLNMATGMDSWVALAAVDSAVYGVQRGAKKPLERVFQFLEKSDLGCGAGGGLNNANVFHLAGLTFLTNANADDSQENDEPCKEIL
T1 sequence (P01031 678-1676 limits assumed, chain 2 of 2): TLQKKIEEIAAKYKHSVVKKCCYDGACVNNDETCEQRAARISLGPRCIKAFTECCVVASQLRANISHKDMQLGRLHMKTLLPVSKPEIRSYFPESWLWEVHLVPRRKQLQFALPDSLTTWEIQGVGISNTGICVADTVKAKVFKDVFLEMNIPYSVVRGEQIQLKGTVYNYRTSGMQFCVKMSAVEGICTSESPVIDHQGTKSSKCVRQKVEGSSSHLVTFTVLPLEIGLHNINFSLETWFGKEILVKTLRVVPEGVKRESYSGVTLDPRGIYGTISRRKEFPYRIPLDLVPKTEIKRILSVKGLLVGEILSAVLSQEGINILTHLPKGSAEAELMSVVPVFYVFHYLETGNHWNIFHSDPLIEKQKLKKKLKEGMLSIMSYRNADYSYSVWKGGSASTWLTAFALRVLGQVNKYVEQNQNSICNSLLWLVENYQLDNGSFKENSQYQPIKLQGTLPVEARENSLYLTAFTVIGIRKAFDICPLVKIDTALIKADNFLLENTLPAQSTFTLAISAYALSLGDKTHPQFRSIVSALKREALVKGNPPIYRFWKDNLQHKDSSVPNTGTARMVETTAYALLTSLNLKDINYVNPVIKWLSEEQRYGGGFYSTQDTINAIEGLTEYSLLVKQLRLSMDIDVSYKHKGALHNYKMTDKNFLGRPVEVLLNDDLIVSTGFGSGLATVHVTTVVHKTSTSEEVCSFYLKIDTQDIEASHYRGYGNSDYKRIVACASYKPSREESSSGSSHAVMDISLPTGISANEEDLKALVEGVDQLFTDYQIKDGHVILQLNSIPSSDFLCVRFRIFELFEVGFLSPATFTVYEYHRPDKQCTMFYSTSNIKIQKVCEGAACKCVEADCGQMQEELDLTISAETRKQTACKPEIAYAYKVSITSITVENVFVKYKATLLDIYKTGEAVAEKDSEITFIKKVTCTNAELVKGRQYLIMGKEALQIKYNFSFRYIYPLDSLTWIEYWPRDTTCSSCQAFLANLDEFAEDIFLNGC

B1: wild type Coversin (Ornithodoros moubata) (other)
chain: DSESDCTGSEPVDAFQAFSEGKEAYVLVRSTDPKARDCLKGEPAGEKQDNTLPVMMTFKNGTDWASTDWTFTLDGAKVTATLGNLTQNREVVYDSQSHHCHVDKVEKEVPDYEMWMLDAGGLEVEVECCRQKLEELASGRNQMYPHLKDC
notes: also called Coversin wild type; unmodified Coversin polypeptide
Kd: 1.45 nM
